Laboratory results taken from the supplement of paper PMC10567573.

B1: FAM164A (parent)
chain: YDPDYIQCPYCQRRFNENAADRHI

Variants of: B1
Experiment: protein stability index of a GFP-peptide fusion (GPS, HEK-293T) (PSI 1-6); higher = more stable
Conditions: c terminus: a fixed tail appended
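Further: lentivirally expressed fusions sorted by FACS into six bins by GFP to DsRed ratio, PSI derived from sequencing read proportions per bin multiplied by bin number.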

Variant | protein stability index
YDKDYIQCPYCQRRFNENAADRHI | 4.63
YDWDYIQCPYCQRRFNENAADRHI | 3.5
YDVDYIQCPYCQRRFNENAADRHI | 4.25
YDSDYIQCPYCQRRFNENAADRHI | 4.39
YDYDYIQCPYCQRRFNENAADRHI | 4.24
YDNDYIQCPYCQRRFNENAADRHI | 4.46
YDCDYIQCPYCQRRFNENAADRHI | 3.49
YDPDYIWCPYCQRRFNENAADRHI | 2.83
YDPDYIGCPYCQRRFNENAADRHI | 2.54
YDPDYIKCPYCQRRFNENAADRHI | 3.94
YDPDYIPCPYCQRRFNENAADRHI | 2.88
YDPDYIACPYCQRRFNENAADRHI | 3.27
YDPDYIRCPYCQRRFNENAADRHI | 3.79
YDPDYICCPYCQRRFNENAADRHI | 3.57
YDPDYITCPYCQRRFNENAADRHI | 4.57
YDPDYIDCPYCQRRFNENAADRHI | 2.64
YDPDYISCPYCQRRFNENAADRHI | 3.27
YDPDYINCPYCQRRFNENAADRHI | 2.89
YDPDYIMCPYCQRRFNENAADRHI | 3.33
YDPDYIYCPYCQRRFNENAADRHI | 3.77
YDPDYIICPYCQRRFNENAADRHI | 4.76
YDPDYIECPYCQRRFNENAADRHI | 3.87
YDPDYIVCPYCQRRFNENAADRHI | 4.7
YDPDYIFCPYCQRRFNENAADRHI | 3.15

Variant | protein stability index
YDPDYIHCPYCQRRFNENAADRHI | 2.76
YDPDYILCPYCQRRFNENAADRHI | 3.48
YDPNYIQCPYCQRRFNENAADRHI | 4.22
YDPGYIQCPYCQRRFNENAADRHI | 4.28
YDPLYIQCPYCQRRFNENAADRHI | 3.59
YDPWYIQCPYCQRRFNENAADRHI | 3.5
YDPRYIQCPYCQRRFNENAADRHI | 3.53
YDPVYIQCPYCQRRFNENAADRHI | 3.84
YDPCYIQCPYCQRRFNENAADRHI | 3.48
YDPPYIQCPYCQRRFNENAADRHI | 4.08
YDPHYIQCPYCQRRFNENAADRHI | 4.5
YDPFYIQCPYCQRRFNENAADRHI | 3.72
YDPQYIQCPYCQRRFNENAADRHI | 4.42
YDPKYIQCPYCQRRFNENAADRHI | 4.11
YDPTYIQCPYCQRRFNENAADRHI | 4.08
YDPIYIQCPYCQRRFNENAADRHI | 4.5
YDPSYIQCPYCQRRFNENAADRHI | 4.49
YDPYYIQCPYCQRRFNENAADRHI | 3.59
YDPAYIQCPYCQRRFNENAADRHI | 4.26
YDPMYIQCPYCQRRFNENAADRHI | 3.8
YDPEYIQCPYCQRRFNENAADRHI | 4.21
YDPDYVQCPYCQRRFNENAADRHI | 4.14
YDPDYHQCPYCQRRFNENAADRHI | 3.71
